Consider four substances from publication PMC3570589.

What all share (experiment): ITC
On the technique in general: In ITC the heat of successive injections is recorded.

Assay [1] addresses H3_((27–46))K36me3 peptide (UniProt P68431).
Assay [2] has as its target H3_((28–43))K36me3 peptide (UniProt P68431).
For assay [3], the target named is H3_((28–43))K36me2 peptide (UniProt P68431).
Assay [4] has as its target H3_((28–43))K36me1 peptide (UniProt P68431).

Sequence of PHF1 Tudor domain protein, wild-type (ITC and silver-stained peptide pull-downs) (O43189 29-86): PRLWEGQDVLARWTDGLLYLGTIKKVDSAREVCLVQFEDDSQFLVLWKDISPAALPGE

Consider “PHF19 Tudor domain protein, wild-type (from UniProt Q5T6S3 40-93) (domain or fragment)”, for which, in assay [1], the Kd – broadly, the equilibrium constant for the complex coming apart – is 5 to 7 µM.
Consider “PHF1 Tudor domain protein, W41A (from UniProt O43189-1 29-86) (domain or fragment)”, for which, in assay [2], the Ka was 33200 M⁻¹, the Kd was found to be 30.1 µM, the dH was -1.35 kcal/mol and the stoichiometry N (commonly a count of units in the complex or per binding partner) worked out at 0.68.
In assay [3], “PHF1 Tudor domain protein, wild-type (ITC and silver-stained peptide pull-downs) (from UniProt O43189-1 29-86) (domain or fragment)” showed a Ka of 51800 M⁻¹, a dissociation constant Kd of 19.3 µM, a dH of -3.99 kcal/mol and a stoichiometry N of 0.94. For the same substance, in assay [2], the Ka stood at 238000 M⁻¹, the Kd worked out at 4.2 µM, the dH is -5.63 kcal/mol and the stoichiometry N was 0.79. In assay [4], this substance came in with a dH of -0.817 kcal/mol and a stoichiometry N of 0.7.
In assay [2], “PHF1 Tudor domain protein, E66K (from UniProt O43189-1 29-86) (domain or fragment)” yielded a Ka of 43900 M⁻¹, a dissociation constant Kd of 22.8 µM and a dH of -6.47 kcal/mol.
